The target of assay [1] is T1, RbAp46 (pRB-associated protein p46), human, recombinant (human, UniProt Q16576 1-411).
T1 construct: RbAp46 (RBBP7), human; also called RBBP7; RbAb46; source: recombinant, expressed and purified as described previously (Verreault et al., 1998; Berger et al., 2004)
The assay is described as follows: other fluorescence titration; intrinsic tryptophan fluorescence of 45 nM RbAp46, increasing H3/H4 or H4 peptide (16-41); 50 mM Tris-HCl (pH 7.5), 200 mM NaCl, 5 mM DTT, 25°C; excitation 295 nm, emission 435 nm; single binding-site model; KD for H3/H4 called apparent. Particulars: both partners purified.

The target in assay [2] is T1, RbAp46 (pRB-associated protein p46), …. The assay can be described thus: SPR; RbAp46 crosslinked to a CM5 chip, N-terminal histone H4 peptide as analyte; 10 mM HEPES (pH 7.4), 150 mM NaCl, 0.0005% (v/v) Surfactant P20. To be noted: both partners purified.

T1 sequence (Q16576 1-411): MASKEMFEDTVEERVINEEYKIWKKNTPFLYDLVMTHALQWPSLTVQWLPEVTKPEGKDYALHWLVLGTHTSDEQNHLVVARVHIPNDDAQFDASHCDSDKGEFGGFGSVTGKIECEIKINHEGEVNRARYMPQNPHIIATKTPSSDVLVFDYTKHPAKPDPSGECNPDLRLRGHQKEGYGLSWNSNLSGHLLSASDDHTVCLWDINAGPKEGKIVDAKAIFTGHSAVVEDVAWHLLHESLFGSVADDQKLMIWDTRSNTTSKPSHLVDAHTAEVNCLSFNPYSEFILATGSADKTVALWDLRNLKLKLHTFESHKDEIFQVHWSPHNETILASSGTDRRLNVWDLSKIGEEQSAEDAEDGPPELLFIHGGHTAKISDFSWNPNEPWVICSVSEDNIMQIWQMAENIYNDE

B1: synthetic histone H4 peptide (residues 16-41) (peptide)
peptide: not shown
notes: histone H4 residues 16-41; also called N-terminal histone H4 peptide; H4(16-41); source: synthetic peptide
For the molecule B1, the Kd was 1100 nM in assay [1] and ~1000 nM in assay [2].

For the origin of these results see PMC2572730, “Structural Basis for the Recognition of Histone H4 by the Histone-Chaperone RbAp46” (Structure(London, England:1993), 2008).
